Molecular target: ClpP proteasome (UniProt P0A6G7)

“processed E. coli ClpX protein (after proteolytic removal of the T7B carboxyl-terminal extension)” was tested, and the “ATPase activity and ability to cooperate with the ClpP proteasome in degrading model protein substrates” value was “full biological activity”.

Reference: patent publication US20100144029
